{
  "source": "paper PMC12299175",
  "about": "(2025)",
  "biological_target": "synthetic peptide of stem helix (1141-1161) of SARS-CoV-2 WT S with biotin at C terminus (SARS-CoV-2, UniProt P0DTC2 1141-1161, biotin at C terminus)",
  "assay": "BLI",
  "data": [
    {"binder": "S2P6 recombinant mAb with human IgG1 constant region (antibody, V domains shown) VH: EVQLVQSGAEVKKPGASVKVSCKASGYTFTSQYMHWVRQAPGQGLEWIGIINPSGVHTSYAQKFQGRVTLTRDTSTSTLYMELSSLRSEDTAVYYCARGSPKGAFDYWGQGTLVTVSS VL: not shown", "values": [
      {"measurement": "koff", "result": "< 1e-06", "unit": "s⁻¹"}
    ]}
  ]
}
